These binders were tested against T1, CD3 epsilon homodimer protein (UniProt P07766 23-126) (assay: SPR Biacore T200, CD3 epsilon homodimer immobilized; vs unaltered GLS3000;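 also: antibody variants flowed as analyte over CD3 epsilon homodimer amine-coupled to a CM4 chip, at 25 °C in HBS-EP+ running buffer, fitted with Biacore T200 Evaluation Software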).
T1 construct: construct not described; homodimer as printed; also called CD3 (CD3 epsilon)
T1 sequence (P07766 23-126): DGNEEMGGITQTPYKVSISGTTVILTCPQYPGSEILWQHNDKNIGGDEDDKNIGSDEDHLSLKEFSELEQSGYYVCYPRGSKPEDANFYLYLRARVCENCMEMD

Row | Binder | KD ratio to GLS3000 (Affinity up)
1 | GLS3000 S25V (Kabat) L chain altered form, one-arm antibody with CE115HA000 (antibody, human IgG1, kappa, L234A L235A, N297A, name in Kabat numbering, one-arm antibody) heavy: QVQLVESGGGVVQPGRSLRLSCAASGFTFSNAWMHWVRQAPGKGLEWVAQIKAKSNNYATYYAESVKGRFTISRDDSKNSLYLQMNSLKTEDTAVYYCRYVHYGAYYGVDAWGQGTTVTVSSASTKGPSVFPLAPSSKSTSGGTAALGCLVKDYFPEPVTVSWNSGALTSGVHTFPAVLQSSGLYSLSSVVTVPSSSLGTQTYICNVNHKPSNTKVDKKVEPKSCDKTHTCPPCPAPEAAGGPSVFLFPPKPKDTLMISRTPEVTCVVVDVSHEDPEVKFNWYVDGVEVHNAKTKPREEQYASTYRVVSVLTVLHQDWLNGKEYKCKVSNKALPAPIEKTISKAKGQPREPQVYTLPPSRCELTKNQVSLSCAVKGFYPSDIAVEWESNGQPENNYKTTPPVLDSDGSFFLVSKLTVDKSRWQQGNVFSCSVMHEALHNHYTQKSLSLSPDYKDDDDK EPKSSDKTHTCPPCPAPELLGGPSVFLFPPKPKDTLMISRTPEVTCVVVDVSHEDPEVKFNWYVDGVEVHNAKTKPREEQYNSTYRVVSVLTVLHQDWLNGKEYKCKVSNKALPAPIEKTISKAKGQPREPQVCTLPPSRDELTKNQVSLWCLVKGFYPSDIAVEWESNGQPENNYKTTPPVLDSDGSFFLYSKLTVDKSRWQQGNVFSCSVMHEALHNRYTQKSLSLSP light: DIVMTQSPLSLPVTPGEPASISCRVSQSLVHSNRNTYLHWYQQKPGQAPRLLIYKVSNRFSGVPDRFSGSGSGTDFTLKISRVEAEDVGVYYCGQGTQVPYTFGQGTKLEIKRTVAAPSVFIFPPSDEQLKSGTASVVCLLNNFYPREAKVQWKVDNALQSGNSQESVTEQDSKDSTYSLSSTLTLSKADYEKHKVYACEVTHQGLSSPVTKSFNRGEC | 0.74
2 | GLS3000 S26D (Kabat) L chain altered form, one-arm antibody with CE115HA000 (antibody, human IgG1, kappa, L234A L235A, N297A, name in Kabat numbering, one-arm antibody) heavy: QVQLVESGGGVVQPGRSLRLSCAASGFTFSNAWMHWVRQAPGKGLEWVAQIKAKSNNYATYYAESVKGRFTISRDDSKNSLYLQMNSLKTEDTAVYYCRYVHYGAYYGVDAWGQGTTVTVSSASTKGPSVFPLAPSSKSTSGGTAALGCLVKDYFPEPVTVSWNSGALTSGVHTFPAVLQSSGLYSLSSVVTVPSSSLGTQTYICNVNHKPSNTKVDKKVEPKSCDKTHTCPPCPAPEAAGGPSVFLFPPKPKDTLMISRTPEVTCVVVDVSHEDPEVKFNWYVDGVEVHNAKTKPREEQYASTYRVVSVLTVLHQDWLNGKEYKCKVSNKALPAPIEKTISKAKGQPREPQVYTLPPSRCELTKNQVSLSCAVKGFYPSDIAVEWESNGQPENNYKTTPPVLDSDGSFFLVSKLTVDKSRWQQGNVFSCSVMHEALHNHYTQKSLSLSPDYKDDDDK EPKSSDKTHTCPPCPAPELLGGPSVFLFPPKPKDTLMISRTPEVTCVVVDVSHEDPEVKFNWYVDGVEVHNAKTKPREEQYNSTYRVVSVLTVLHQDWLNGKEYKCKVSNKALPAPIEKTISKAKGQPREPQVCTLPPSRDELTKNQVSLWCLVKGFYPSDIAVEWESNGQPENNYKTTPPVLDSDGSFFLYSKLTVDKSRWQQGNVFSCSVMHEALHNRYTQKSLSLSP light: DIVMTQSPLSLPVTPGEPASISCRSDQSLVHSNRNTYLHWYQQKPGQAPRLLIYKVSNRFSGVPDRFSGSGSGTDFTLKISRVEAEDVGVYYCGQGTQVPYTFGQGTKLEIKRTVAAPSVFIFPPSDEQLKSGTASVVCLLNNFYPREAKVQWKVDNALQSGNSQESVTEQDSKDSTYSLSSTLTLSKADYEKHKVYACEVTHQGLSSPVTKSFNRGEC | 1.06
3 | GLS3000 S27aD (Kabat) L chain altered form, one-arm antibody with CE115HA000 (antibody, human IgG1, kappa, L234A L235A, N297A, name in Kabat numbering, one-arm antibody) heavy: QVQLVESGGGVVQPGRSLRLSCAASGFTFSNAWMHWVRQAPGKGLEWVAQIKAKSNNYATYYAESVKGRFTISRDDSKNSLYLQMNSLKTEDTAVYYCRYVHYGAYYGVDAWGQGTTVTVSSASTKGPSVFPLAPSSKSTSGGTAALGCLVKDYFPEPVTVSWNSGALTSGVHTFPAVLQSSGLYSLSSVVTVPSSSLGTQTYICNVNHKPSNTKVDKKVEPKSCDKTHTCPPCPAPEAAGGPSVFLFPPKPKDTLMISRTPEVTCVVVDVSHEDPEVKFNWYVDGVEVHNAKTKPREEQYASTYRVVSVLTVLHQDWLNGKEYKCKVSNKALPAPIEKTISKAKGQPREPQVYTLPPSRCELTKNQVSLSCAVKGFYPSDIAVEWESNGQPENNYKTTPPVLDSDGSFFLVSKLTVDKSRWQQGNVFSCSVMHEALHNHYTQKSLSLSPDYKDDDDK EPKSSDKTHTCPPCPAPELLGGPSVFLFPPKPKDTLMISRTPEVTCVVVDVSHEDPEVKFNWYVDGVEVHNAKTKPREEQYNSTYRVVSVLTVLHQDWLNGKEYKCKVSNKALPAPIEKTISKAKGQPREPQVCTLPPSRDELTKNQVSLWCLVKGFYPSDIAVEWESNGQPENNYKTTPPVLDSDGSFFLYSKLTVDKSRWQQGNVFSCSVMHEALHNRYTQKSLSLSP light: DIVMTQSPLSLPVTPGEPASISCRSSQDLVHSNRNTYLHWYQQKPGQAPRLLIYKVSNRFSGVPDRFSGSGSGTDFTLKISRVEAEDVGVYYCGQGTQVPYTFGQGTKLEIKRTVAAPSVFIFPPSDEQLKSGTASVVCLLNNFYPREAKVQWKVDNALQSGNSQESVTEQDSKDSTYSLSSTLTLSKADYEKHKVYACEVTHQGLSSPVTKSFNRGEC | 0.94
4 | GLS3000 S26P (Kabat) L chain altered form, one-arm antibody with CE115HA000 (antibody, human IgG1, kappa, L234A L235A, N297A, name in Kabat numbering, one-arm antibody) heavy: QVQLVESGGGVVQPGRSLRLSCAASGFTFSNAWMHWVRQAPGKGLEWVAQIKAKSNNYATYYAESVKGRFTISRDDSKNSLYLQMNSLKTEDTAVYYCRYVHYGAYYGVDAWGQGTTVTVSSASTKGPSVFPLAPSSKSTSGGTAALGCLVKDYFPEPVTVSWNSGALTSGVHTFPAVLQSSGLYSLSSVVTVPSSSLGTQTYICNVNHKPSNTKVDKKVEPKSCDKTHTCPPCPAPEAAGGPSVFLFPPKPKDTLMISRTPEVTCVVVDVSHEDPEVKFNWYVDGVEVHNAKTKPREEQYASTYRVVSVLTVLHQDWLNGKEYKCKVSNKALPAPIEKTISKAKGQPREPQVYTLPPSRCELTKNQVSLSCAVKGFYPSDIAVEWESNGQPENNYKTTPPVLDSDGSFFLVSKLTVDKSRWQQGNVFSCSVMHEALHNHYTQKSLSLSPDYKDDDDK EPKSSDKTHTCPPCPAPELLGGPSVFLFPPKPKDTLMISRTPEVTCVVVDVSHEDPEVKFNWYVDGVEVHNAKTKPREEQYNSTYRVVSVLTVLHQDWLNGKEYKCKVSNKALPAPIEKTISKAKGQPREPQVCTLPPSRDELTKNQVSLWCLVKGFYPSDIAVEWESNGQPENNYKTTPPVLDSDGSFFLYSKLTVDKSRWQQGNVFSCSVMHEALHNRYTQKSLSLSP light: DIVMTQSPLSLPVTPGEPASISCRSPQSLVHSNRNTYLHWYQQKPGQAPRLLIYKVSNRFSGVPDRFSGSGSGTDFTLKISRVEAEDVGVYYCGQGTQVPYTFGQGTKLEIKRTVAAPSVFIFPPSDEQLKSGTASVVCLLNNFYPREAKVQWKVDNALQSGNSQESVTEQDSKDSTYSLSSTLTLSKADYEKHKVYACEVTHQGLSSPVTKSFNRGEC | 0.67
5 | GLS3000 S26E (Kabat) L chain altered form, one-arm antibody with CE115HA000 (antibody, human IgG1, kappa, L234A L235A, N297A, name in Kabat numbering, one-arm antibody) heavy: QVQLVESGGGVVQPGRSLRLSCAASGFTFSNAWMHWVRQAPGKGLEWVAQIKAKSNNYATYYAESVKGRFTISRDDSKNSLYLQMNSLKTEDTAVYYCRYVHYGAYYGVDAWGQGTTVTVSSASTKGPSVFPLAPSSKSTSGGTAALGCLVKDYFPEPVTVSWNSGALTSGVHTFPAVLQSSGLYSLSSVVTVPSSSLGTQTYICNVNHKPSNTKVDKKVEPKSCDKTHTCPPCPAPEAAGGPSVFLFPPKPKDTLMISRTPEVTCVVVDVSHEDPEVKFNWYVDGVEVHNAKTKPREEQYASTYRVVSVLTVLHQDWLNGKEYKCKVSNKALPAPIEKTISKAKGQPREPQVYTLPPSRCELTKNQVSLSCAVKGFYPSDIAVEWESNGQPENNYKTTPPVLDSDGSFFLVSKLTVDKSRWQQGNVFSCSVMHEALHNHYTQKSLSLSPDYKDDDDK EPKSSDKTHTCPPCPAPELLGGPSVFLFPPKPKDTLMISRTPEVTCVVVDVSHEDPEVKFNWYVDGVEVHNAKTKPREEQYNSTYRVVSVLTVLHQDWLNGKEYKCKVSNKALPAPIEKTISKAKGQPREPQVCTLPPSRDELTKNQVSLWCLVKGFYPSDIAVEWESNGQPENNYKTTPPVLDSDGSFFLYSKLTVDKSRWQQGNVFSCSVMHEALHNRYTQKSLSLSP light: DIVMTQSPLSLPVTPGEPASISCRSEQSLVHSNRNTYLHWYQQKPGQAPRLLIYKVSNRFSGVPDRFSGSGSGTDFTLKISRVEAEDVGVYYCGQGTQVPYTFGQGTKLEIKRTVAAPSVFIFPPSDEQLKSGTASVVCLLNNFYPREAKVQWKVDNALQSGNSQESVTEQDSKDSTYSLSSTLTLSKADYEKHKVYACEVTHQGLSSPVTKSFNRGEC | 0.9
6 | GLS3000 S27aE (Kabat) L chain altered form, one-arm antibody with CE115HA000 (antibody, human IgG1, kappa, L234A L235A, N297A, name in Kabat numbering, one-arm antibody) heavy: QVQLVESGGGVVQPGRSLRLSCAASGFTFSNAWMHWVRQAPGKGLEWVAQIKAKSNNYATYYAESVKGRFTISRDDSKNSLYLQMNSLKTEDTAVYYCRYVHYGAYYGVDAWGQGTTVTVSSASTKGPSVFPLAPSSKSTSGGTAALGCLVKDYFPEPVTVSWNSGALTSGVHTFPAVLQSSGLYSLSSVVTVPSSSLGTQTYICNVNHKPSNTKVDKKVEPKSCDKTHTCPPCPAPEAAGGPSVFLFPPKPKDTLMISRTPEVTCVVVDVSHEDPEVKFNWYVDGVEVHNAKTKPREEQYASTYRVVSVLTVLHQDWLNGKEYKCKVSNKALPAPIEKTISKAKGQPREPQVYTLPPSRCELTKNQVSLSCAVKGFYPSDIAVEWESNGQPENNYKTTPPVLDSDGSFFLVSKLTVDKSRWQQGNVFSCSVMHEALHNHYTQKSLSLSPDYKDDDDK EPKSSDKTHTCPPCPAPELLGGPSVFLFPPKPKDTLMISRTPEVTCVVVDVSHEDPEVKFNWYVDGVEVHNAKTKPREEQYNSTYRVVSVLTVLHQDWLNGKEYKCKVSNKALPAPIEKTISKAKGQPREPQVCTLPPSRDELTKNQVSLWCLVKGFYPSDIAVEWESNGQPENNYKTTPPVLDSDGSFFLYSKLTVDKSRWQQGNVFSCSVMHEALHNRYTQKSLSLSP light: DIVMTQSPLSLPVTPGEPASISCRSSQELVHSNRNTYLHWYQQKPGQAPRLLIYKVSNRFSGVPDRFSGSGSGTDFTLKISRVEAEDVGVYYCGQGTQVPYTFGQGTKLEIKRTVAAPSVFIFPPSDEQLKSGTASVVCLLNNFYPREAKVQWKVDNALQSGNSQESVTEQDSKDSTYSLSSTLTLSKADYEKHKVYACEVTHQGLSSPVTKSFNRGEC | 0.94

— US20240270846A1 (published 2024)
